Holding throughout (assay): cell-based or functional assay
The target in assay [1] is HIV-1 Env of isolate MGRM-AG-013 (subtype AG) (HIV-1).
Assay [2] has as its target HIV-1 Env of isolate MGRM-A-006 (pseudovirus) (HIV-1).
Assay [3] deals with HIV-1 Env of isolate MGRM-AG-011 (subtype AG) (HIV-1).
Assay [4] concerns the target HIV-1 CMU02 envelope protein (Env) on pseudovirus (HIV-1).
Assay [5] concerns the target HIV-1 Env of isolate MGRM-AG-001 (subtype AG) (HIV-1).
The target in assay [6] is HIV-1 Env of isolate MGRM-D-004 (pseudovirus) (HIV-1).
Assay [7] has as its target HIV-1 Env of isolate MGRM-AE-002 (subtype AE) (HIV-1).
In assay [8] the target is HIV-1 Env of isolate MGRM-A-005 (pseudovirus) (HIV-1).
Assay [9] concerns the target HIV-1 Env of isolate MGRM-D-013 (pseudovirus) (HIV-1).
The target in assay [10] is HIV-1 envelope glycoprotein (Env) of isolate MG RM-AG-012 (HIV-1).
For assay [11], the target named is HIV-1 envelope glycoprotein (Env) of isolate MG RM-AG-006 (HIV-1).
The target in assay [12] is HIV-1 envelope glycoprotein (Env) of isolate MG RM-AG-002 (HIV-1).
Assay [13] addresses HIV-1 Env of pseudovirus MGRM-F1-012 (HIV-1).
The target of assay [14] is HIV-1 Env of pseudovirus MGRM-F1-010 (HIV-1).
The target of assay [15] is HIV-1 envelope glycoprotein (Env) of isolate MG RM-AG-013 (HIV-1).
Assay [16] has as its target HIV-1 Env of pseudovirus MGRM-D-024 (HIV-1).
Assay [17] addresses HIV-1 envelope glycoprotein (Env) of isolate MG RM-AG-009 (HIV-1).
For assay [18], the target named is HIV-1 Env of pseudovirus MGRM-F1-018 (HIV-1).
Assay [19] addresses HIV-1 envelope glycoprotein (Env) of isolate MG RM-AG-003 (HIV-1).
The target of assay [20] is HIV-1 Env of pseudovirus MGRM-F1-016 (HIV-1).
For assay [21], the target named is HIV-1 JR-CSF Env N301A (HIV-1 (isolate JR-CSF, clade B)) (UniProt P20871).
For assay [22], the target named is HIV-1 envelope glycoprotein (Env) of isolate MGRM-Chronic-B-020, on pseudovirus (HIV-1).
The target in assay [23] is HIV-1 envelope glycoprotein (Env) of isolate 6535.3, on pseudovirus (HIV-1).
Assay [24] addresses HIV-1 envelope glycoprotein (Env) of isolate 93TH305, on pseudovirus (HIV-1).
Assay [25] concerns the target HIV-1 envelope glycoprotein (Env) of isolate PVO.4, on pseudovirus (HIV-1).
The target in assay [26] is HIV-1 Env of isolate MGRM-F1-021 (pseudovirus) (HIV-1).
The target of assay [27] is HIV-1 Env of isolate MG RM-A-006 (pseudovirus) (HIV-1).
For assay [28], the target named is HIV-1 Env of isolate MG RM-A-007 (pseudovirus) (HIV-1).
Assay [29] has as its target HIV-1 Env of isolate MGRM-C-023 (subtype C), on pseudovirus (HIV-1).
Assay [30] concerns the target HIV-1 Env of isolate MGRM-G-028 (subtype G) (HIV-1).
Assay [31] has as its target HIV-1 Env of pseudovirus isolate CAAN.A2 (clade B) (HIV-1).
Assay [32] addresses HIV-1 Env of isolate MGRM-G-025 (subtype G) (HIV-1).
Assay [33] deals with HIV-1 Env of isolate 92TH021 (pseudovirus) (HIV-1).
The target in assay [34] is HIV-1 Env of isolate MGRM-G-011 (subtype G) (HIV-1).

The values that follow come from patent US20240132578A1.

Bounds are passed on as bounds.

Sequence of PGT-144 (4970_K22) (antibody) (VH): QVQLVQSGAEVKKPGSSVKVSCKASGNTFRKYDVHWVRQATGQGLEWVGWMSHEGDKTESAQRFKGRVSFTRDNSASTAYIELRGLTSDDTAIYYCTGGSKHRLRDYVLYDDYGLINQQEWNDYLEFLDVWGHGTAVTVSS
Sequence of PGT-144 (4970_K22) (antibody) (VL): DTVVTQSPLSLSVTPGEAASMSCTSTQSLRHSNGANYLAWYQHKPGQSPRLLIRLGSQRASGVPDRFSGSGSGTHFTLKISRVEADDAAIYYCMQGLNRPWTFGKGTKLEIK
Sequence of PGT-142 (4995_E20) (antibody) (VH): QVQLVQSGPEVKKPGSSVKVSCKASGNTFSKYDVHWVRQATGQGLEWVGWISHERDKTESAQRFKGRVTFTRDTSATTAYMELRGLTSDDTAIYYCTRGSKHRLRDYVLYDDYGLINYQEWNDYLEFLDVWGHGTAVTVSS
Sequence of PGT-142 (4995_E20) (antibody) (VL): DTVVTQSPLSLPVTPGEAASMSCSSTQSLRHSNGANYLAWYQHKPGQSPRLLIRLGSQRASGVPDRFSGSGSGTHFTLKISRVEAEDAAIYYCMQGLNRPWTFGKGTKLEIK
Sequence of PGT-145 (4995_P16) (antibody) (VH): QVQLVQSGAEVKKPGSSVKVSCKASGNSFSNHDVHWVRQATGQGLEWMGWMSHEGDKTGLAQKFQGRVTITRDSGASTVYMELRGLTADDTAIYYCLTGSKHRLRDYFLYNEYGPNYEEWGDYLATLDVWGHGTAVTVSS
Sequence of PGT-145 (4995_P16) (antibody) (VL): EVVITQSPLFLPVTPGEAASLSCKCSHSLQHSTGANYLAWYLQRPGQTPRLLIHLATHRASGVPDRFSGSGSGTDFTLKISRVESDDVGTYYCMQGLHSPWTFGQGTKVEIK
Sequence of PGT-143 (4980_N08) (antibody) (VH): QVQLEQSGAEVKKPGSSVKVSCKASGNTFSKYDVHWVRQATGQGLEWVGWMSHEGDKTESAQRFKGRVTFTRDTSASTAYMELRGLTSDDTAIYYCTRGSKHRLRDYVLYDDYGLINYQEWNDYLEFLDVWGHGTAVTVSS
Sequence of PGT-143 (4980_N08) (antibody) (VL): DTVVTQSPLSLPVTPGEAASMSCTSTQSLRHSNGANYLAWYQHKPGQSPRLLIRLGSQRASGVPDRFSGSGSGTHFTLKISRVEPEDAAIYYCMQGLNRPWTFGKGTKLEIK
Sequence of PGT-141 (4964_G22; 4993_K13) (antibody) (VH): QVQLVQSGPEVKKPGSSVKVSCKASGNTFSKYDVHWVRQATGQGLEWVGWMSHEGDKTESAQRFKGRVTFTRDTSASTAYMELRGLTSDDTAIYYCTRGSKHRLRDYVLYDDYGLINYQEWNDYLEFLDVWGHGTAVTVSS

5329_C19 (PGT-136) (antibody): the IC50, pseudovirus neutralization in [1], in assay [3], in assay [5] and in assay [7] was more than 50 µg/mL in each case. In addition, the IC50 (µg/mL), pseudovirus neutralization in assay [2], in assay [6], in assay [8] and in [9] was more than 50 µg/mL throughout. Besides, the IC50 (ug/mL), pseudovirus neutralization in assay [4] is more than 10 µg/mL.
For PGT-144 (4970_K22) (antibody), the IC50 in assay [10] is more than 50 µg/mL; in [11], more than 50 µg/mL; in assay [12] it was 7.78 µg/mL; in assay [15], more than 40 µg/mL; in assay [17], more than 50 µg/mL; in assay [19], more than 50 µg/mL. Also, the IC50, pseudovirus neutralization in assay [13], in [14], in assay [16], in [18] and in assay [20] was more than 50 µg/mL throughout.
Consider PGT-142 (4995_E20) (antibody), for which the IC50 in assay [10] was more than 50 µg/mL; in assay [11], more than 50 µg/mL; in assay [12] it was 0.044 µg/mL; in assay [15], 21.7 µg/mL; in assay [17], more than 50 µg/mL; in assay [19], more than 50 µg/mL. Besides, the IC50, pseudovirus neutralization in [13] was more than 50 µg/mL; in assay [14], more than 50 µg/mL; in assay [16], more than 50 µg/mL; in [18], 0.404 µg/mL; in assay [20], more than 50 µg/mL.
As to 5114_A19 (PGT-128) (antibody), the IC50, pseudovirus neutralization in [1] came out at 0.004 µg/mL; in assay [3], 3.93 µg/mL; in assay [5] it was 4.73 µg/mL; in assay [7], 0.522 µg/mL. In addition, the IC50 (µg/mL), pseudovirus neutralization in [2] was more than 50 µg/mL; in assay [6] it was 24.9 µg/mL; in assay [8], more than 50 µg/mL; in assay [9] it was 8.85 µg/mL. Further, the Fold IC50 increase relative to wild-type in assay [21] amounted to 10.7 fold.
With 5145_B14 (PGT-127) (antibody), the IC50, pseudovirus neutralization amounted to 0.05 µg/mL in [22], 0.02 µg/mL in assay [23], 0.017 µg/mL in assay [24] and 0.164 µg/mL in assay [25]. Besides, the Fold IC50 increase relative to wild-type in assay [21] is more than 250 fold. The IC50 (µg/mL), pseudovirus neutralization in [26] is more than 50 µg/mL.
As to 5141_B17 (PGT-126) (antibody), the IC50, pseudovirus neutralization in assay [22] is 0.021 µg/mL; in assay [23], 0.022 µg/mL; in assay [24], 0.013 µg/mL; in assay [25] it was 0.017 µg/mL. For the same substance, the Fold IC50 increase relative to wild-type in assay [21] amounted to 314 fold. The substance further showed an IC50 (ug/mL), pseudovirus neutralization in assay [4] of more than 10 µg/mL. In assay [26], this substance displayed an IC50 (µg/mL), pseudovirus neutralization of more than 50 µg/mL.
PGT-145 (4995_P16) (antibody): the IC50 in [10] was more than 50 µg/mL; in assay [11] it was 6.6 µg/mL; in [12] it was 0.056 µg/mL; in assay [15], 14.4 µg/mL; in assay [17], more than 50 µg/mL; in assay [19], more than 50 µg/mL. The IC50, pseudovirus neutralization came to 0.113 µg/mL in assay [13]; 3.32 µg/mL in [14]; 0.224 µg/mL in [16]; 1.02 µg/mL in assay [18]; 17.5 µg/mL in assay [20].
For PGT-143 (4980_N08) (antibody), the IC50 in assay [10] is more than 50 µg/mL; in assay [11] it was more than 50 µg/mL; in assay [12], 0.076 µg/mL; in [15], more than 50 µg/mL; in assay [17], more than 50 µg/mL; in assay [19], more than 50 µg/mL. In addition, the IC50, pseudovirus neutralization in assay [13] was more than 50 µg/mL; in assay [14] it was more than 50 µg/mL; in [16], more than 50 µg/mL; in assay [18] it was 0.701 µg/mL; in assay [20] it was more than 50 µg/mL.
5345_I01 (PGT-137) (antibody): the IC50, pseudovirus neutralization in assay [1], in assay [3], in assay [5] and in assay [7] was more than 50 µg/mL throughout. Moreover, the IC50 (µg/mL), pseudovirus neutralization in [2], in assay [6], in assay [8] and in assay [9] was more than 50 µg/mL throughout.
Consider 5123_A06 (PGT-125) (antibody), for which the IC50, pseudovirus neutralization in [22] is 0.087 µg/mL; in assay [23], 0.01 µg/mL; in assay [24], 0.008 µg/mL; in assay [25] it was 0.042 µg/mL. The same substance registered a Fold IC50 increase relative to wild-type in assay [21] of 213 fold. The same substance yielded an IC50 (ug/mL), pseudovirus neutralization in assay [4] of more than 10 µg/mL. In [26], this substance came in with an IC50 (µg/mL), pseudovirus neutralization of more than 50 µg/mL.
Regarding 5136_H01 (PGT-131) (antibody), the IC50, pseudovirus neutralization was 0.03 µg/mL in assay [1], more than 50 µg/mL in [3], more than 50 µg/mL in [5] and more than 50 µg/mL in assay [7]. Further, the IC50 (µg/mL), pseudovirus neutralization in assay [2] was more than 50 µg/mL; in assay [6], 2.01 µg/mL; in assay [8], more than 50 µg/mL; in assay [9] it was 4.14 µg/mL. This substance showed a Fold IC50 increase relative to wild-type in assay [21] of more than 170 fold.
As for VRC01 (antibody), the IC50 in assay [10] is 0.031 µg/mL; in assay [11] it was 0.344 µg/mL; in assay [12] it was 0.95 µg/mL; in assay [15] it was 0.197 µg/mL; in assay [17], more than 50 µg/mL; in [19] it was 0.043 µg/mL. Further, the IC50, pseudovirus neutralization turned out to be 0.488 µg/mL in assay [13]; 0.097 µg/mL in [14]; 0.722 µg/mL in [31]; 0.366 µg/mL in assay [16]; 0.032 µg/mL in [18]; 0.517 µg/mL in assay [20]. In addition, the IC50 (µg/mL), single-round pseudovirus neutralization came out at 0.521 µg/mL in [27], 12.6 µg/mL in [28] and 0.616 µg/mL in [33]. The same substance yielded an IC50, single-round pseudovirus neutralization in [29] of 0.077 µg/mL. For the same substance, the IC50 (µg/mL), pseudovirus neutralization in assay [30] was determined as 0.164 µg/mL; in assay [32], 0.292 µg/mL; in assay [34] it was 0.065 µg/mL.
Take PGT-141 (4964_G22; 4993_K13) (antibody): the IC50 is more than 50 µg/mL in assay [10]; more than 50 µg/mL in assay [11]; 0.049 µg/mL in assay [12]; more than 50 µg/mL in [15]; more than 50 µg/mL in [17]; more than 50 µg/mL in [19]. For the same substance, the IC50, pseudovirus neutralization in assay [13] is more than 50 µg/mL; in assay [14], more than 50 µg/mL; in assay [16], more than 50 µg/mL; in assay [18], 0.785 µg/mL; in assay [20], more than 50 µg/mL.
In the case of 5343_B08 (PGT-135) (antibody), the IC50, pseudovirus neutralization in [1], in assay [3], in assay [5] and in assay [7] was more than 50 µg/mL in each case. For the same substance, the IC50 (µg/mL), pseudovirus neutralization in [2], in assay [6], in assay [8] and in assay [9] was more than 50 µg/mL throughout. The substance further showed an IC50 (ug/mL), pseudovirus neutralization in [4] of more than 10 µg/mL.
